One data set concerns the target T1, EcUPPS (Escherichia coli, UniProt P60472).
T1 construct: made in house; host or cells: E. coli
Put plainly: Product chain length by HPLC with fluorescent starter substrate 110. Particulars: 10 µM EcUPPS, 110 as starter substrate, HPLC of hydrolysed products. The class given is biochemical. Here is the method: (§1) Zur Bestimmung der Produktkettenlängen wurden 500 µL Enzymassays in MS-Gläschen durchgeführt. […] Die Extraktion der Polyprenyldiphosphate erfolgte mit 500 µL 1-Butanol. Die Butanolphase wurde in ein neues Glas überführt und unter Stickstoffstrom von dem Lösungsmittel befreit. Die Hydrolyse der Diphosphate zum Polyprenol erfolgte durch Zugabe von 200 µL Hydrolysepuffer (20% Isopropanol, 4,4 Units/mL saure Phophatase aus Kartoffeln, 0,1 % Triton X-100, 50 mM Natriumacetat (pH 4,7)) und wurde über Nacht bei 37 °C inkubiert. Die Polyprenole wurden mit 500 µL nHexan extrahiert und zur weiteren DC- oder HPLC-Analyse vorbereitet. Für DC-Experimente und LC/ESI-MS-Analysen wurde die nHexan-Phase in ein neues Glas überführt, das Lösungsmittel abgedampft und die Produkte erneut in 100 µL nHexan resuspendiert um eine Aufkonzentrierung zu erreichen. Für HPLC-Analysen mit 110 ((2E,6E)-8-O-(N-methyl-2-aminobenzoyl)-3,7-dimethyl-2,6-octandien-1-diphosphat) als Startersubstrat wurde die nHexan-Phase 1:3 verdünnt in das HPLC-System mittels Autosampler injiziert.
Die HPLC-Analyse der Polyprenole erfolgte an einer Anlage von Merck HITACHI D-7000, wobei als stationäre Phase eine YMC-ODS AQ (150 x 4 mm, 5 µm; YMC Europe GmbH, Dinslaken) Säule verwendet wurde. Die Elution erfolgte mit 1 mL·min^-1 und die Detektion bei 210 nm mit einem UV-VIS Detektor: Merck HITACHI L-7420. […]

Data set [1] has as its target T2, Thermococcus kodakaraensis cis-Prenyltransferase (ThkCPT) (Thermococcus kodakarensis, UniProt Q5JGE1).
T2 construct: made in house; host or cells: E. coli
T2 sequence (Q5JGE1 1-264): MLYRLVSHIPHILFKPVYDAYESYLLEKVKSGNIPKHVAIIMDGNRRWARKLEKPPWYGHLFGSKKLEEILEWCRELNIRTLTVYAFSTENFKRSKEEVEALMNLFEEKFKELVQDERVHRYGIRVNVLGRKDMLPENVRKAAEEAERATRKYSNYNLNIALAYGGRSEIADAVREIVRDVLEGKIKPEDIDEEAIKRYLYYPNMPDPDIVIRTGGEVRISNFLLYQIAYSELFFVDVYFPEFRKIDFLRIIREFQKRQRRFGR
The data set can be described thus: MTP phosphate detection assay (diphosphate release, BIOMOL Green), substrate kinetics. To be noted: elongation substrate varied, starter FPP 10 µM, room temperature. The data set is classed as biochemical. The procedure:
(§2) Cis-Prenyltransferasen entlassen während der Reaktion Diphosphat nach jedem Kondensationsschritt. Dies ist der Ansatzpunkt, der gewählt wurde, um unabhängig von der Art des Produktes den Grundumsatz zu detektieren. […] Die Dreifachbestimmungen der Enzymreaktionen wurden mit 100 µL BIOMOL Green™ Detektionsreagenz gestoppt und nach weiteren 20 min in einem Mikrotiterplattenspektrophotometer bei 620 nm gemessen. Zur Kontrolle erfolgte für jede Substratkonzentration eine Messung mit denaturiertem Enzym zu den unterschiedlichen Zeitpunkten um Selbsthydrolyse der Substrate zu berücksichtigen. Zur Quantifizierung wurde eine Pi-Standardkurve in Doppelbestimmung mitgeführt. Die Verdünnung des KPi-Standards erfolgte in Assaypuffer, wurde mit 100 µL BIOMOL Green™ Detektionsreagenz nach Ablauf der Enzymreaktion in den Test-Wells detektiert und zeitgleich nach weiteren 20 min bei 620 nm gemessen. Eine lineare Beziehung zwischen A620 nm und Pi-Konzentration ermöglichte eine Quantifizierung zwischen 80 µM-0 µM Pi.
(§3) Die Bestimmung der FPP-Kinetiken der EcUPPS sowie der ThkCPT erfolgte unter analogen Bedingungen der Bestimmung von IPP. […] Die Enzymreaktion wurde nach 60 s, 120 s, 180 s, 300 s, 600 s, 900 s oder 1200 s durch Zugabe von 100 µL BIOMOL Green™ Detektionsreagenz gestoppt und wie oben beschrieben gemessen.
(§4) Die Assaybedingungen wurden wie in Beispiel 3 beschriebenen gewählt. […] Variation von 500 - 0 µM im Fall der Elongationssubstrate erfolgte konstant mit 10 µM FPP (jedes Homoallyldiphosphat möglich).
(§5) Zur Berechnung der Umsatzraten in nkat·mg^-1 wurde verwendet: ν0 = ((A620-ABlank)⋅1000)/(2⋅m⋅t⋅[E]) [formula] v0 Anfangsgeschwindigkeit der Diphosphathydrolyse (nkat·mg^-1) A620 Absorption bei 620 nm ABlank Absorption der Kontrolle bei 620 nm m Anstieg der Phosphatstandardkurve (µM^-1) t Dauer der Enzymreaktion (s) [E] Enzymkonzentration (mg·L^-1)
(§6) Die Auswertung erfolgte durch nicht-lineare Regression nach der Hill-Gleichung mit Sigma-Plot 11. […] Substratkonzentration (µM) h Hill-Koeffizient

Data set [2] has as its target T3, E. coli Undecaprenyldiphosphatsynthase (EcUPPS) (Escherichia coli, UniProt P60472).
T3 construct: made in house; host or cells: E. coli
T3 sequence (P60472 1-253): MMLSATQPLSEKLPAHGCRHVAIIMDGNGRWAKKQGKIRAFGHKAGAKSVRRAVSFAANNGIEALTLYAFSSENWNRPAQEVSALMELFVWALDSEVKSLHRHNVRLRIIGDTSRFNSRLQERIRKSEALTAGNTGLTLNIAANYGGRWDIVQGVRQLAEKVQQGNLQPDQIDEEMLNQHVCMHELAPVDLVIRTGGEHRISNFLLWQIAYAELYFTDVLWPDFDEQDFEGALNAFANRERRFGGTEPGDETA
The description is as above. The data set is classed as biochemical. Particulars: for rel. kcat Km^-1: relative to natural substrate FPP (100 %). The procedure:
as §2, §3, §4, §5, §6

Another data set deals with T4, ThkCPT (Thermococcus kodakarensis, UniProt Q5JGE1).
T4 construct: made in house; host or cells: E. coli
T4 sequence (Q5JGE1 1-264): T2 sequence (Q5JGE1 1-264)
The data set can be described thus: Product chain length by HPLC with fluorescent starter substrate 110. The data set is classed as biochemical, Thermococcus kodakaraensis. Here is the method: as §1
Die HPLC-Analyse der Polyprenole erfolgte an einer Anlage von Merck HITACHI D-7000, wobei als stationäre Phase eine YMC-ODS AQ (150 x 4 mm, 5 µm; YMC Europe GmbH, Dinslaken) Säule verwendet wurde. Die Elution erfolgte mit 1 mL·min^-1 und die Detektion bei 210 nm mit einem UV-VIS Detektor: Merck HITACHI L-7420. Das Injektionsvolumen betrug dabei 5 µL. Die mobile Phase setzte sich aus Laufmittel A (MeOH/H2O/Isopropanol 12:1:8 (v/v/v)) und Laufmittel B (nHexan/Isopropanol 7:3 (v/v)) zusammen. Die Probenaufgabe erfolgte mittels Autosampler (Merck HITACHI L-7250). [drawing 35]
Zur selektiven und vor allem sensitiven Detektion von Polyprenolen kann ein alternatives, fluoreszierendes Startersubstrat verwendet werden, (2E,6E)-8-O-(N-methyl-2-aminobenzoyl)-3,7-dimethyl-2,6-octandien-1-diphosphat (110). Die Analyse erfolgte wie in Beispiel 6 beschrieben. Dabei wurden 3 µL pro Probe injiziert und die Detektion erfolgte über Fluoreszenz: Ex 352 nm / Em 420 nm wobei das Gerät Merck HITACHI L-7480 als Fluoreszenzdetektor verwendet wurde. […]

Substrate in data set [3]: CC(C)=CCC/C(C)=C/COP(=O)(O)OP(=O)(O)O
Put plainly: MTP phosphate detection assay (diphosphate release, BIOMOL Green), substrate kinetics. The data set is classed as biochemical, Escherichia coli. Particulars: other: starter substrate varied 80 - 0 µM, elongation substrate IPP constant 150 µM, 22°C. The procedure: as §2, §3, §4, §5, §6

Substrate in data set [4]: CC(C)=CCC/C(C)=C/CC/C(C)=C/CC/C(C)=C/COP(=O)(O)OP(=O)(O)O
The description is as above. The data set is classed as biochemical, Escherichia coli. Particulars: other: starter substrate varied 80 - 0 µM, elongation substrate IPP constant 150 µM, 22°C. The procedure:
as §2, §3, §4, §5, §6

Substrate in data set [5]: C=C(Cl)CCOP(=O)(O)OP(=O)(O)O
The description is as above. The data set is classed as biochemical, Escherichia coli. Particulars: other: elongation substrate varied 500 - 0 µM, starter FPP constant 10 µM; 22.0 °C. The procedure:
as §2, §3, §4, §5, §6

Substrate in data set [6]: CNc1ccccc1C(=O)OC/C(C)=C/CC/C(C)=C/COP(=O)(O)OP(=O)(O)O
Described as above. The data set is classed as biochemical, Escherichia coli. Particulars: other: starter substrate varied 80 - 0 µM, elongation substrate IPP constant 150 µM, 22°C. Here is the method: as §2, §3, §4, §5, §6

Substrate in data set [7]: C=C(C)CCO[P@@](=O)(O)OP(=O)(O)O
Described as above. The data set is classed as biochemical, Escherichia coli. Particulars: other: elongation substrate varied 500 - 0 µM, starter FPP constant 10 µM; 22.0 °C. The procedure:
as §2, §3, §4, §5, §6

Substrate in data set [8]: C=C(Br)CCOP(=O)(O)OP(=O)(O)O
Described as above. The class given is biochemical, Escherichia coli. To be noted: other: elongation substrate varied 500 - 0 µM, starter FPP constant 10 µM; 22.0 °C. Here is the method:
as §2, §3, §4, §5, §6

Substrate in data set [9]: C=C(C)CCO[P@@](=O)(O)OP(=O)(O)O
Put plainly: purified protein, by the assay type. To be noted: other: elongation substrate varied, starter FPP 10 µM, room temperature.

Substrate in data set [10]: C=C(Cl)CCOP(=O)(O)OP(=O)(O)O
The data set can be described thus: MTP phosphate detection assay (diphosphate release, BIOMOL Green), substrate kinetics. The class given is biochemical, Thermococcus kodakaraensis. To be noted: other: elongation substrate varied, starter FPP 10 µM, room temperature. Here is the method: as §2, §3, §4, §5, §6

Substrate in data set [11]: C=C(Br)CCOP(=O)(O)OP(=O)(O)O
The data set is described as above. The class given is biochemical, Thermococcus kodakaraensis. Particulars: other: elongation substrate varied, starter FPP 10 µM, room temperature. Here is the method:
as §2, §3, §4, §5, §6

[12] abbreviates: starter substrate varied, IPP constant 150 µM.

The values that follow come from patent publication EP2848693A1, “Concatenation of halogenated alkenyl diphosphate derivatives” (LANXESS Deutschland GmbH, priority 2013, dated 2015).

Take `C=C(Br)CCOP(=O)(O)OP(=O)(O)O` [Br-BPP, 3-Brom-3-Butenyldiphosphat]: the “Kondensationsschritte / Elongationseinheiten” value at EcUPPS was determined as 2. Moreover, the kcat in [1] is recorded as 0,0004 s^-1; in [2] (elongation substrate varied, starter FPP 10 µM), 0,0004 s^-1. The “Kondensationen (Reaktionsprodukte)” value at ThkCPT (10 µM ThkCPT, 110 as starter substrate, room temperature 25°C) is recorded as “mehr als zwei Kondensationen”.
For the molecule `CNc1ccccc1C(=O)OC/C(C)=C/CC/C(C)=C/COP(=O)(O)OP(=O)(O)O` [Substrat 110, (2E,6E)-8-O-(N-methyl-2-aminobenzoyl)-3,7-dimethyl-2,6-octandien-1-diphosphat], the “rel. kcat Km^-1” value in [2] was determined as 4%. In addition, the “Akzeptanz als Startersubstrat der ThkCPT” value on ThkCPT (65°C) is on record as “als Startersubstrat akzeptiert”.
Broadly, the Km is the substrate concentration at which the rate is half of its maximum. For the molecule Farnesyldiphosphat [FPP], in [2], the “rel. kcat Km^-1” value is on record as 100%. Besides, the Km in data set [2] (starter substrate varied 80 - 0 µM, elongation substrate IPP constant 150 µM, 22°C) is 1.8 µM. Besides, in data set [2] (setting [12]), the kcat is given as 0,5 s^-1 and the vmax is reported as 17,9 ± 0,4 nkat/mg.
On to `CC(C)=CCC/C(C)=C/CC/C(C)=C/CC/C(C)=C/COP(=O)(O)OP(=O)(O)O` [GGPP, Geranylgeranyldiphosphat], for which the “rel. kcat Km^-1” value in data set [2] was determined as 76%.
Turning to `CC(C)=CCC/C(C)=C/CC/C(C)=C\COP(=O)(O)OP(=O)(O)O` [Z,E-FPP], the “rel. kcat Km^-1” value in data set [2] is reported as 90%.

B1: E. coli Undecaprenyldiphosphatsynthase (EcUPPS) (Escherichia coli K-12) (protein)
chain: T3 sequence (P60472 1-253)
notes: made in house; host or cells: E. coli
Usually kcat/Km stands for the turnover number divided by the Michaelis constant. With B1, the Km in [3] was 48,8 ± 8,3 µM; in data set [4], 1.9 µM; in [5], 3.8 µM; in [6], 5.6 µM; in [7], 6.5 µM; in [8] it was 6.4 µM. Moreover, the Vmax was 11,3 ± 0,7 nkat/mg in [3]; 14,9 ± 0,3 nkat/mg in data set [4]; 0,03 nkat mg^-1 in [5]; 1,9 ± 0,1 nkat/mg in [6]; 14,4 nkat mg^-1 in [7]; 0,02 nkat mg^-1 in data set [8]. For the same molecule, the kcat in data set [3] is listed as 0,3 s^-1; in [4], 0,4 s^-1; in data set [6], 0,1 s^-1; in data set [7], 0,4 s^-1. The kcat/Km was found to be 7000 M⁻¹ s⁻¹ in [3], 223000 M⁻¹ s⁻¹ in data set [4] and 11000 M⁻¹ s⁻¹ in data set [6].

B2: Thermococcus kodakaraensis cis-Prenyltransferase (ThkCPT) (Thermococcus kodakarensis KOD1) (protein)
chain: T2 sequence (Q5JGE1 1-264)
notes: as for B1
On to B2, for which the figures for the Km in data set [9], in data set [10] and in data set [11] were 14.8 µM, 21,2+/-2,1 µM and 54,0 +/- 11,1 µM, respectively. Besides, the Vmax is given as 2,0 nKat mg^-1 in data set [9], 0,01 nKat mg^-1 in [10] and 0,01 nKat mg^-1 in data set [11]. Besides, the kcat in data set [9] was 0,07 s^-1.
